Test results from the supplement of paper PMC10126150.
± gives the standard deviation of the averaged measurements.

Tested on: ATP
Assay: switch fluorescence ratio, 500 uM ATP over buffer (Cy3 cluster intensity, sum of 5 cycles each) (fold (ratio)); higher = stronger signal-on switching upon ATP binding; sequences stand for … in TCGTCGGCAGCGTCAGATGTGTATAAGAGACAGTTTTTTTTTTTTTTTTTTTTTTTTT…TC
Settings: aptamer strand: ATP DNA aptamer (quencher-CACCTGGGGGAGTATTGCGGAGGAAGG + anchor), 100 nM annealed; ATP concentration: 500 uM
Procedure, shortened: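 Five buffer/ATP imaging cycles were run on Cy3-labelled switching-strand clusters on a modified Illumina MiSeq flow-cell, with NaOH stripping and re-annealing between cycles. In each cycle, clusters annealed to 100 nM quencher-labelled ATP aptamer were imaged in selection buffer, then after 15 min with 500 uM ATP at 22 °C. Per cluster, the fluorescence ratio is summed target-cycle over summed buffer-cycle Cy3 intensity, averaged per switch-domain sequence. Only clusters within 100-1000 RFU were kept.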
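Further: ATP exposure 15 min at 22 °C before imaging.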

| Sequence | switch fluorescence ratio |
| --- | --- |
| TAGAGGGTGC | 0.967 ± 0.052 |
| TAGAGGTAGG | 0.979 ± 0.018 |
| TAGAGGTATG | 1.01 ± 0.028 |
| TAGAGTCCAT | 1.02 ± 0.019 |
| TAGAGTCGTG | 0.981 ± 0.027 |
| TAGAGTTTGG | 1 ± 0.045 |
| TAGATAAGGC | 0.981 ± 0.018 |
| TAGATATGAG | 1.009 ± 0.0012 |
| TAGATCGGGG | 1.008 ± 0.01 |
| TAGATGCTTT | 0.96461 ± 0.00038 |
| TAGATGGGGC | 0.967 ± 0.029 |
| TAGATGTCAG | 0.986 ± 0.016 |
| TAGATGTGTT | 1.01 ± 0.023 |
| TAGATTAGGA | 1.01 ± 0.036 |
| TAGATTGTCT | 1.01 ± 0.03 |
| TAGATTTTGC | 1.03 ± 0.027 |
| TAGCAAGTG | 1.04 ± 0.041 |
| TAGCAGGGTT | 0.9852 ± 0.0061 |
| TAGCAGTCGA | 1.09 ± 0.058 |
| TAGCAGTTGG | 0.988 ± 0.02 |
| TAGCCATGTC | 0.924 ± 0.053 |
| TAGCCCTGTG | 1.05 ± 0.014 |

| Sequence | switch fluorescence ratio |
| --- | --- |
| TAGCCGGCCT | 1.05 ± 0.025 |
| TAGCCTATTT | 0.975 ± 0.038 |
| TAGCCTTACG | 1.123 ± 0.0043 |
| TAGCGAGTAT | 1 ± 0.011 |
| TAGCGATGGG | 1.01 ± 0.017 |
| TAGCGCTTTA | 1.01 ± 0.017 |
| TAGCGGGAGG | 1.02 ± 0.024 |
| TAGCGGGGCT | 1.04 ± 0.043 |
| TAGCTAGACG | 1.01 ± 0.012 |
| TAGCTAGCGT | 1.01 ± 0.019 |
| TAGCTGAGAC | 1.162 ± 0.006 |
| TAGCTGAGGT | 1.03 ± 0.017 |
| TAGCTGCAAA | 1.05 ± 0.024 |
| TAGCTGGCTG | 0.986 ± 0.043 |
| TAGCTGGGGA | 1.01 ± 0.033 |
| TAGCTGGGGG | 0.995 ± 0.021 |
| TAGCTTAACA | 0.979 ± 0.018 |
| TAGCTTCTCC | 1.34 ± 0.033 |
| TAGGAAAGGG | 0.997 ± 0.027 |
| TAGGAAGATG | 1.02 ± 0.1 |
| TAGGAAGCGT | 0.9777 ± 0.0039 |
| TAGGAAGGGT | 0.997 ± 0.028 |

| Sequence | switch fluorescence ratio |
| --- | --- |
| TAGGAGAGAC | 0.998 ± 0.057 |
| TAGGAGGCGG | 0.958 ± 0.039 |
| TAGGAGGGTG | 1.01 ± 0.035 |
| TAGGAGGTAC | 1.01 ± 0.054 |
| TAGGATGAGT | 0.99997 ± 0.00035 |
| TAGGATGTCT | 1 ± 0.0021 |
| TAGGATTACT | 1.02 ± 0.014 |
| TAGGCACAAC | 1.15 ± 0.025 |
| TAGGCAGGGG | 1.08 ± 0.021 |
| TAGGCCTCGA | 0.985 ± 0.026 |
| TAGGCGGTTT | 0.9641 ± 0.00067 |
| TAGGCGTGCG | 0.976 ± 0.052 |
| TAGGCTAGGG | 0.9713 ± 0.0062 |
| TAGGCTCCAA | 1.01 ± 0.02 |
| TAGGGAATAG | 1.14 ± 0.12 |
| TAGGGACGCC | 1.031 ± 0.0046 |
| TAGGGACGGC | 1.07 ± 0.095 |
| TAGGGAGAAT | 0.992 ± 0.054 |
| TAGGGAGGA | 0.98 ± 0.022 |
| TAGGGAGGTG | 1.04 ± 0.053 |
| TAGGGATAGC | 0.985 ± 0.013 |
| TAGGGATTTC | 0.997 ± 0.019 |

| Sequence | switch fluorescence ratio |
| --- | --- |
| TAGGGCACGA | 0.97 ± 0.08 |
| TAGGGCAGGT | 1.01 ± 0.036 |
| TAGGGCATCA | 0.987 ± 0.042 |
| TAGGGCTGCA | 1.06 ± 0.079 |
| TAGGGGAAGG | 1.03 ± 0.05 |
| TAGGGGACCG | 0.991 ± 0.017 |
| TAGGGGAGAC | 1.06 ± 0.047 |
| TAGGGGAGGT | 1.01 ± 0.016 |
| TAGGGGAGTG | 1.02 ± 0.035 |
| TAGGGGATCA | 0.9839 ± 0.0036 |
| TAGGGGCAGT | 1.09 ± 0.14 |
| TAGGGGGCTT | 1.01 ± 0.018 |
| TAGGGGGGTA | 0.982 ± 0.035 |
| TAGGGGGGTC | 1 ± 0.066 |
| TAGGGGGGTT | 1 ± 0.04 |
| TAGGGGTCCT | 1.01 ± 0.046 |
| TAGGGGTTAT | 0.995 ± 0.015 |
| TAGGGTATGT | 1.01 ± 0.018 |
| TAGGGTCGG | 1 ± 0.053 |
